In patent US11840557B2, “Wnt7 variants capable of activating g-protein coupled receptor (Gpr)124/Reck/frizzled/lipoprotein receptor-related protein (LRP)-mediated Wnt signaling” (UNIVERSITÉ LIBRE DE BRUXELLES, priority 2018, dated 2023):

Legend:
[1] = tested on: zebrafish zygote; format: in vivo, Danio rerio; settings: injection in zygote, 3 dpf larvae
Description: The following splice-blocking morpholino (MOs) (GeneTools, Eugene, OR) were injected into embryos at the one-cell stage: wnt7aa ([…], 6 ng) (SEQ ID NO.: 123). Synthetic mRNAs were transcribed from pCS2 plasmids after NotI digestion using the mMessage mMachine SP6 Kit (Ambion, Carlsbad, CA) and injected into one-cell stage zebrafish embryo. For Xenopus laevis microinjection, 15 pg of wnt7a or wnt7a^K190A or wnt7a^1-278 mRNA were injected into one ventral blastomere of the four-cell stage embryo.
zebrafish embryos were imaged with an LSM710 confocal microscope and images were processed in ImageJ. Images of zebrafish development phenotypes were taken on Leica M165 FC. Xenopus larvae were imaged with an Olympus SZX16.

[2] = tested on: all 10 Fz genes; assay: STF luciferase assay after co-transfection with all 10 Fz genes, no Gpr124/Reck; format: cell-based; settings: in the absence of Gpr124/Reck
Description: Cells were plated into 96-well plates and transfected after 24 h in triplicate with Lipofectamine 2000 (Invitrogen, Carlsbad, Calif.). The amount of plasmid DNA transfected per well was optimized for each expression vector: Renilla luciferase (0.5 ng), Wnt (20 ng), Fz (5 ng), LRP (2.5 ng), Gpr124 (10 ng), Reck (10 ng) unless otherwise indicated. The total amount of DNA was adjusted to 100 ng per well with the empty pCS2 vector. Cells were harvested in passive lysis buffer (E1960, Promega, Wisconsin) and the activities of the Firefly and Renilla luciferases were measured sequentially using the Dual-Luciferase Reporter Assay system (E1960, Promega, Madison, Wis.) 48 h post-transfection.

[3] = biological target: T1, Gpr124/Reck/Fz/LRP (UniProt O70421+O95980); assay: STF dual luciferase assay, Gpr124/Reck-dependent signaling in HEK293-STF cells; format: cell-based; settings: Gpr124, RECK and Fz1 transfection
T1 construct: host or cells: HEK293-STF cells
Description: Cells were plated into 96-well plates and transfected after 24 h in triplicate with Lipofectamine 2000 (Life Technologies, Carlsbad, Calif.). The amount of plasmid DNA transfected per well was optimized for each expression vector: Renilla luciferase (0.5 ng) (was kindly provided by Jeremy Nathans (John Hopkins)), Wnt ligands (20 ng), Fz receptors (5 ng), Lrp (2.5 ng), Gpr124 (10 ng), Reck (5 ng) and Dkk-1 (10 ng) unless otherwise indicated. The total amount of DNA was adjusted to 100 ng per well with the empty pCS2 vector. Dual luciferase assays were performed using the STF cell line or by co-transfecting 20 ng of M50 Super 8× TOPFlash plasmid (Addgene plasmid #12456). Cells were harvested in passive lysis buffer (E1960, Promega, Wis.) and the activities of the Firefly and Renilla luciferases were measured sequentially using the Dual-Luciferase Reporter Assay system (E1960, Promega, Madison, Wis.) 48 h post-transfection. […] Luciferase activity was measured 24 h after co-culture.
Cells were plated into 96-well plates and transfected after 24 h in triplicate with Lipofectamine 2000 (Invitrogen, Carlsbad, Calif.). […] Cells were harvested in passive lysis buffer (E1960, Promega, Wisconsin) and the activities of the Firefly and Renilla luciferases were measured sequentially using the Dual-Luciferase Reporter Assay system (E1960, Promega, Madison, Wis.) 48 h post-transfection.

T1 sequence (O95980 23-942 limits assumed): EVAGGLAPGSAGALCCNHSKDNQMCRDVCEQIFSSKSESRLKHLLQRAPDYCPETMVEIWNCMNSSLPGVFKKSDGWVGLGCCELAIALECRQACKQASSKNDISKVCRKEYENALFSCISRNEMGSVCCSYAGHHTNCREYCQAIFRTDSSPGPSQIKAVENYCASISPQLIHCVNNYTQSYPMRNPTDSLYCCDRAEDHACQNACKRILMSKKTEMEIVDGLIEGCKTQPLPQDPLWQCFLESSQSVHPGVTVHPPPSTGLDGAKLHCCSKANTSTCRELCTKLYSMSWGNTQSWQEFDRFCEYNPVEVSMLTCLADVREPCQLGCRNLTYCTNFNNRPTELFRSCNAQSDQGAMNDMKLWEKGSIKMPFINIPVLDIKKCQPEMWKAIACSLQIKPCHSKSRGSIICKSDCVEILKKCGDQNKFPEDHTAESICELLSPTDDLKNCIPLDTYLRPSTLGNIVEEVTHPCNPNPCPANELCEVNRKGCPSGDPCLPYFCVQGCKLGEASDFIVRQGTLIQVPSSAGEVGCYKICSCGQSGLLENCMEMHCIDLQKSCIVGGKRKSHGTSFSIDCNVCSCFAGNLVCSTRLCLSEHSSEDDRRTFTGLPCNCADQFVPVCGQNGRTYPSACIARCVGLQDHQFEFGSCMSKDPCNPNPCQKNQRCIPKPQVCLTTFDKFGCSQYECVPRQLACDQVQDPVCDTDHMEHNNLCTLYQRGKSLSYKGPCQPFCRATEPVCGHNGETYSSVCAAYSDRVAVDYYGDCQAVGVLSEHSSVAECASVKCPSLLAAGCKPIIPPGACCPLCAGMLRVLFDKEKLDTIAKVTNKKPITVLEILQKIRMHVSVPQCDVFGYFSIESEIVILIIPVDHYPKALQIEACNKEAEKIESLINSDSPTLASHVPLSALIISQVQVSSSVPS
T1 sequence (O70421 69-642): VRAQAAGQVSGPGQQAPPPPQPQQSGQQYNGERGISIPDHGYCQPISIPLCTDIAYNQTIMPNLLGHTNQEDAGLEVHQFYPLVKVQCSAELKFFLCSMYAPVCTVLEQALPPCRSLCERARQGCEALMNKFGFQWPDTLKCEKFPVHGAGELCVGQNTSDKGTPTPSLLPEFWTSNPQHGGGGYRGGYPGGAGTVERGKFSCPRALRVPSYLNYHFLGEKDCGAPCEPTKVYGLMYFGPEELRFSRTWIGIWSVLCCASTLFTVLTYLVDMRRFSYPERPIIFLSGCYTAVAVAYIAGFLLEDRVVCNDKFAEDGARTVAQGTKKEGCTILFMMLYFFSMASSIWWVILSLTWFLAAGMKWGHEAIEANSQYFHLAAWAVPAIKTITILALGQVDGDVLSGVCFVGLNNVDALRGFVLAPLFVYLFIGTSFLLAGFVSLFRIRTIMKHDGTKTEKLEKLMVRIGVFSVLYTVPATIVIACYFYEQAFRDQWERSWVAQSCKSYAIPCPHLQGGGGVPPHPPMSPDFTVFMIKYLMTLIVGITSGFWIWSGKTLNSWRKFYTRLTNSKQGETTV
T1 sequence (Q96PE1 34-1338 partner): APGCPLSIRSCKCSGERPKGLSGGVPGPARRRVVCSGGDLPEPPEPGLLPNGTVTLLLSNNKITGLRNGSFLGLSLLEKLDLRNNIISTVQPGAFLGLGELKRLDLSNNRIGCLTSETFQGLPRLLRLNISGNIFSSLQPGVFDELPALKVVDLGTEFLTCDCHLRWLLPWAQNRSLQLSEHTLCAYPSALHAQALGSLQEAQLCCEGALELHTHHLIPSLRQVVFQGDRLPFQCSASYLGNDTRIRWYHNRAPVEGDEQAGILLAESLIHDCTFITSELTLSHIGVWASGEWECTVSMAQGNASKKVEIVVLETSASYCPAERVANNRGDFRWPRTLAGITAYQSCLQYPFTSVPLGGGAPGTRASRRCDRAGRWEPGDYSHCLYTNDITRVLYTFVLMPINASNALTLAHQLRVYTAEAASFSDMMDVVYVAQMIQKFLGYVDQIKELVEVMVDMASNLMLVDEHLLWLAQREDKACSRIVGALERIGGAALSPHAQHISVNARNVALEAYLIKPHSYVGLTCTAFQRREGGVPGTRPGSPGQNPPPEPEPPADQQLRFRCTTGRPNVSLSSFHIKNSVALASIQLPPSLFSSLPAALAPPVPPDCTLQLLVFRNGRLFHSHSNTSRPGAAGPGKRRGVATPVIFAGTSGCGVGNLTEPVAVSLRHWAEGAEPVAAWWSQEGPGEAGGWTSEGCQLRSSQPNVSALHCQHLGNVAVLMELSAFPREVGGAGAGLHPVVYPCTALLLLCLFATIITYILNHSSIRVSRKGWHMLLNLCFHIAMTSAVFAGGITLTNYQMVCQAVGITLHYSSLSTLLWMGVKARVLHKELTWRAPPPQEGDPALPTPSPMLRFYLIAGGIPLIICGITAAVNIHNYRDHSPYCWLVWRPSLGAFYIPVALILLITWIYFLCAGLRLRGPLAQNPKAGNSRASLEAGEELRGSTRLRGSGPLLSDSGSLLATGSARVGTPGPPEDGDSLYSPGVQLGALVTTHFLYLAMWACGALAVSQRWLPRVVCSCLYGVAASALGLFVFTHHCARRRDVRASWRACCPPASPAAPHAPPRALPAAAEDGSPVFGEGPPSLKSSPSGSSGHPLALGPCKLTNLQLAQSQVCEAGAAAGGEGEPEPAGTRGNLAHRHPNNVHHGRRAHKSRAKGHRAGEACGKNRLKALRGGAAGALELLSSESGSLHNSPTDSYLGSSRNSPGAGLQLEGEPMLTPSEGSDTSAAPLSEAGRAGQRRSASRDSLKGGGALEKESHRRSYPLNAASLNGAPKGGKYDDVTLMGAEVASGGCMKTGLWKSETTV
T1 sequence (O75581 20-1613 partner): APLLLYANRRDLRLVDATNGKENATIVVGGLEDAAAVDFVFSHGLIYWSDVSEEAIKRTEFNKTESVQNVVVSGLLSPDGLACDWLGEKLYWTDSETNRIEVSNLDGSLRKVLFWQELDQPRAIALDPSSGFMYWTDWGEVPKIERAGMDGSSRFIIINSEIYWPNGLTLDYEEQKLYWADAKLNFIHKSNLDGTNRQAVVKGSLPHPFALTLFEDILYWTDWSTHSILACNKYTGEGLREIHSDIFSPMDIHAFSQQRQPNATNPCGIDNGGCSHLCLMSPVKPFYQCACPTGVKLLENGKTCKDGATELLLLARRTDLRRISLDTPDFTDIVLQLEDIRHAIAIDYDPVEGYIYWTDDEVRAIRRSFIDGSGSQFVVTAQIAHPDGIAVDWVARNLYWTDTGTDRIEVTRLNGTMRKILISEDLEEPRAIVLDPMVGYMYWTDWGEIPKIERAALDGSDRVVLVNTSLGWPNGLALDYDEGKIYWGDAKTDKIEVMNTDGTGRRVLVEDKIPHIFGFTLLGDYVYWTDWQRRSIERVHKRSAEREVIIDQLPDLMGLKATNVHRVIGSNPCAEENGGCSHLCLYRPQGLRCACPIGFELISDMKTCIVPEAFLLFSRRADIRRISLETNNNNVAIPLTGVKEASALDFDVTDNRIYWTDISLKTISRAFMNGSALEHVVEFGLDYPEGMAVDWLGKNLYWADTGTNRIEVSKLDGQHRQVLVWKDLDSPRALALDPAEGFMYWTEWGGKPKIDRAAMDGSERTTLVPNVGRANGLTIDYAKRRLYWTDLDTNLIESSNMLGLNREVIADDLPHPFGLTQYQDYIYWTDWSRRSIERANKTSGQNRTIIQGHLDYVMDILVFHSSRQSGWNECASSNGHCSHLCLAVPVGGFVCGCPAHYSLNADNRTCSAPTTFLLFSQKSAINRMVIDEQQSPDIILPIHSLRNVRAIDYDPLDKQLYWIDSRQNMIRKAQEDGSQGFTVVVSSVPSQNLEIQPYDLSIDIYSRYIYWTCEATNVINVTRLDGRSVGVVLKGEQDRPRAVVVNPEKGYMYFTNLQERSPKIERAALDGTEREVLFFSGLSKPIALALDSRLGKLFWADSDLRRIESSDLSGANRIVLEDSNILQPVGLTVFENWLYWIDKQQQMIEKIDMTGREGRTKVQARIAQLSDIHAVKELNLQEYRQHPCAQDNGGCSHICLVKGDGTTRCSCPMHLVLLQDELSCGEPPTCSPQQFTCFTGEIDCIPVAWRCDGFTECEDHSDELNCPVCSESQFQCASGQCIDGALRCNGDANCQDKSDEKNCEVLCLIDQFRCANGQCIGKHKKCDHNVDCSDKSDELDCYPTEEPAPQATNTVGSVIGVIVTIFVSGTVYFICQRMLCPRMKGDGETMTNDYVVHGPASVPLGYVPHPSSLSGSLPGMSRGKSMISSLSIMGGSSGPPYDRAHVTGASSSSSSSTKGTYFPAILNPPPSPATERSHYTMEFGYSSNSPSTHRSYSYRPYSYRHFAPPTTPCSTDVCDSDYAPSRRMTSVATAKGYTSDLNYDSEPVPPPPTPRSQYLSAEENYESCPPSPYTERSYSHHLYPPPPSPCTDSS

B1: Wnt7a^1-278: the N-terminal domain of Wnt7a, single domain truncated variant (protein)
chain: LGASIICNKIPGLAPRQRAICQSRPDAIIVIGEGSQMGLDECQFQFRNGRWNCSALGERTVFGKELKVGSREAAFTYAIIAAGVAHAITAACTQGNLSDCGCDKEKQGQYHRDEGWKWGGCSADIRYGIGFAKVFVDAREIKQNARTLMNLHNNEAGRKILEENMKLECKCHGVSGSCTTKTCWTTLPQFRELGYVLKDKYNEAVHVEPVRASRNKRPTFLKIKKPLSYRKPMDTDLVYIEKSPNYC
modifications: left off: small tags and cut ends
notes: the N-terminal domain of Wnt7a, single domain truncated variant
[1]
  mRNA dose well tolerated without posteriorizing or gross anatomical alterations: up to 1 ng
[2]
  signaling through any Fz: failed to signal through any Fz
[3]
  signaling capacity via Gpr124/Reck/Fz1: ~40%
